The chains are these.
T1: MAGE-A6 peptide on HLA-B*35:01 (human)
T1 peptide: EVDPIGHVY

T2: MAGE-A3 peptide on HLA-B*35:01 (human)
T2 peptide: EVDPIGHLY

T3: MAGE-A1 peptide on HLA-B*07:02 (human)
T3 peptide: RVRFFFPSL

T4: MAGE-A1 peptide on HLA-A*03:01 (human)
T4 peptide: SLFRAVITK

T5: MAGE-A1 peptide on HLA-C*07:02 (human)
T5 peptide: VRFFFPSL

T6: MAGE-A1 peptide on HLA-A*02:01 (human)
T6 peptide: KVLEYVIKV

T7: MAGE-A9 peptide on HLA-A*01:01 (human)
T7 peptide: YVGKEHMFY

B1: LTQDLVQEKYLEY (MAGE-A1 peptide) (peptide)
peptide: LTQDLVQEKYLEY
notes: synthetic peptide
B2: YVGKEHMFY (MAGE-A9 peptide) (peptide)
peptide: YVGKEHMFY
notes: synthetic peptide
B3: FPSLREAAL (MAGE-A1 peptide) (peptide)
peptide: FPSLREAAL
notes: synthetic peptide
B4: YPSLREAAL (MAGE-A4 peptide) (peptide)
peptide: YPSLREAAL
notes: synthetic peptide
B5: RVRFFFPSL (MAGE-A1 peptide) (peptide)
peptide: RVRFFFPSL
notes: synthetic peptide
B6: RVRIAYPSL (MAGE-A4 peptide) (peptide)
peptide: RVRIAYPSL
notes: synthetic peptide
B7: RPADLTRVIM (MAGE-A11 peptide) (peptide)
peptide: RPADLTRVIM
notes: synthetic peptide
B8: ALKDVEERV (MAGE-C2 peptide) (peptide)
peptide: ALKDVEERV
notes: synthetic peptide
B9: KIWEELSVLEV (MAGE-A3/A6 peptide) (peptide)
peptide: KIWEELSVLEV
notes: synthetic peptide
B10: ALIEVGPDHFC (MAGE-C2 peptide) (peptide)
peptide: ALIEVGPDHFC
notes: synthetic peptide
B11: FVYGEPREL (MAGE-C2 peptide) (peptide)
peptide: FVYGEPREL
notes: synthetic peptide
B12: KVLEYVIKV (MAGE-A1 peptide) (peptide)
peptide: KVLEYVIKV
notes: synthetic peptide
B13: ALREEEEGV (MAGE-A1 peptide) (peptide)
peptide: ALREEEEGV
notes: synthetic peptide
B14: VIWEVLNAV (MAGE-C2 peptide) (peptide)
peptide: VIWEVLNAV
notes: synthetic peptide
B15: VLGEEQEGV (MAGE-A9 peptide) (peptide)
peptide: VLGEEQEGV
notes: synthetic peptide
B16: KASEKIFYV (SSX2 peptide) (peptide)
peptide: KASEKIFYV
notes: synthetic peptide
B17: TLDEKVAEL (MAGE-C2 peptide) (peptide)
peptide: TLDEKVAEL
notes: synthetic peptide
B18: KVLEFLAKL (MAGE-C2 peptide) (peptide)
peptide: KVLEFLAKL
notes: synthetic peptide
B19: GVYAGREHFV (MAGE-C2 peptide) (peptide)
peptide: GVYAGREHFV
notes: synthetic peptide
B20: GVYDGREHTV (MAGE-A4 peptide) (peptide)
peptide: GVYDGREHTV
notes: synthetic peptide
B21: RIFPKIMPK (SSX4 peptide) (peptide)
peptide: RIFPKIMPK
notes: synthetic peptide
B22: RVRFFFPSLR (MAGE-A1 peptide) (peptide)
peptide: RVRFFFPSLR
notes: synthetic peptide
B23: RVRIAYPSLR (MAGE-A4 peptide) (peptide)
peptide: RVRIAYPSLR
notes: synthetic peptide
B24: SVMGVYVGK (MAGE-A9 peptide) (peptide)
peptide: SVMGVYVGK
notes: synthetic peptide
B25: RCFPVIFGK (MAGE-A4 peptide) (peptide)
peptide: RCFPVIFGK
notes: synthetic peptide
B26: ATLPPFMCNK (SSX2 peptide) (peptide)
peptide: ATLPPFMCNK
notes: synthetic peptide
B27: SMLGDGHSMPK (MAGE-A9 peptide) (peptide)
peptide: SMLGDGHSMPK
notes: synthetic peptide
B28: IVLGVILTK (MAGE-A9 peptide) (peptide)
peptide: IVLGVILTK
notes: synthetic peptide
B29: VRFFFPSL (MAGE-A1 peptide) (peptide)
peptide: VRFFFPSL
notes: synthetic peptide
B30: TCR CT23.2H9 (TCR, V domains shown)
Valpha: KDQVFQPSTVASSEGAVVEIFCNHSVSNAYNFFWYLHFPGCAPRLLVKGSKPSQQGRYNMTYERFSSSLLILQVREADAAVYYCAVPNNYGQNFVFGPGTRLSVLP
Vbeta: NAGVTQTPKFRILKIGQSMTLQCTQDMNHNYMYWYRQDPGMGLKLIYYSVGAGITDKGEVPNGYNVSRSTTEDFPLRLELAAPSQTSVYFCASSYSGQGLYEQYFGPGTRLTVT
B31: TCR CT12.3G2 (TCR, V domains shown)
Valpha: AQKVTQAQTEISVVEKEDVTLDCVYETRDTTYYLFWYKQPPSGELVFLIRRNSFDEQNEISGRYSWNFQKSTSSFNFTITASQVVDSAVYFCALSEAYSGAGSYQLTFGKGTKLSVIP
Vbeta: EPEVTQTPSHQVTQMGQEVILRCVPISNHLYFYWYRQILGQKVEFLVSFYNNEISEKSEIFDDQFSVERPDGSNFTLKIRSTKLEDSAMYFCASSEALQPQHFGDGTRLSIL
B32: TCR CT23.3H4 (TCR, V domains shown)
Valpha: RKEVEQDPGPFNVPEGATVAFNCTYSNSASQSFFWYRQDCRKEPKLLMSVYSSGNEDGRFTAQLNRASQYISLLIRDSKLSDSATYLCVVNFNYGQNFVFGPGTRLSVLP
Vbeta: DTGVSQDPRHKITKRGQNVTFRCDPISEHNRLYWYRQTLGQGPEFLTYFQNEAQLEKSRLLSDRFSAERPKGSFSTLEIQRTEQGDSAMYLCASSPLGVNTEAFFGQGTRLTVV
B33: TCR CT31.10C1 (TCR, V domains shown)
Valpha: DQQVKQNSPSLSVQEGRISILNCDYTNSMFDYFLWYKKYPAEGPTFLISISSIKDKNEDGRFTVFLNKSAKHLSLHIVPSQPGDSAVYFCAASAQNNDMRFGAGTRLTVKP
Vbeta: DAGVIQSPRHEVTEMGQEVTLRCKPISGHDYLFWYRQTMMRGLELLIYFNNNVPIDDSGMPEDRFSAKMPNASFSTLKIQPSEPRDSAVYFCASGTGWDTEAFFGQGTRLTVV
B34: TCR CT27.4F7 (TCR, V domains shown)
Valpha: GEDVEQSLFLSVREGDSSVINCTYTDSSSTYLYWYKQEPGAGLQLLTYIFSNMDMKQDQRLTVLLNKKDKHLSLRIADTQTGDSAIYFCAESIDARLMFGDGTQLVVKP
Vbeta: DSGVTQTPKHLITATGQRVTLRCSPRSGDLSVYWYQQSLDQGLQFLIQYYNGEERAKGNILERFSAQQFPDLHSELNLSSLELGDSALYFCASSPGGDTQYFGPGTRLTVL
B35: TCR CT43.2D8 (TCR, V domains shown)
Valpha: EDKVVQSPLSLVVHEGDTVTLNCSYEVTNFRSLLWYKQEKKAPTFLFMLTSSGIEKKSGRLSSILDKKELSSILNITATQTGDSAIYLCAVEGWDDKIIFGKGTRLHILP
Vbeta: DAGITQSPRHKVTETGTPVTLRCHQTENHRYMYWYRQDPGHGLRLIHYSYGVKDTDKGEVSDGYSVSRSKTEDFLLTLESATSSQTSVYFCAISEGRNEQYFGPGTRLTVT

One assay deals with T8, HLA-A*01:01 with beta-2 microglobulin (human).
T8 construct: also called HLA-A1
As to the kind of experiment: pHLA monomer refolding.
Consider B1, for which the binding result was “binds”.
Still for that read-out and setting: the result for B2 reads “binds”.

The target of the next assay is T9, HLA-B*07:02 with beta-2 microglobulin (human).
T9 construct: also called HLA-B7
As to the kind of experiment: pHLA monomer refolding.
Turning to B3, the binding result was “binds”.
As for B4, the binding result is listed as “binds”.
Same read-out and setting: as for B5, the entry is “binds”; as for B6, “binds”.
On the same count and under the same terms, the result for B7 reads “binds”.

In another assay the target is T10, HLA-A*02:01 with beta-2 microglobulin (human).
T10 construct: also called HLA-A2
As to the kind of experiment: pHLA monomer refolding.
As for B8, the binding result is reported as “binds”.
Same read-out and setting: as for B9, the entry is “binds”.
Same read-out and setting: as for B10, the entry is “binds”.
As to B11, the binding result is listed as “binds”.
The same measure, in the same setting: as for B12, the entry is “binds”.
Same read-out and setting: the result for B13 reads “binds”.
Still for that read-out and setting: as for B14, the entry is “binds”.
With B15, the binding result is listed as “binds”.
Same read-out and setting: the result for B16 reads “binds”; that for B17, “binds”.
The same measure, in the same setting: the result for B18 reads “binds”; that for B19, “binds”; that for B20, “binds”.

For another assay, the target named is T11, HLA-A*03:01 with beta-2 microglobulin (human).
T11 construct: also called HLA-A3
Kind of assay: pHLA monomer refolding.
Regarding B21, the binding result is “binds”.
Same read-out and setting: the result for B22 reads “binds”; that for B23, “binds”; that for B24, “binds”.
Same read-out and setting: the result for B25 reads “binds”; that for B26, “binds”; that for B27, “binds”.
In the case of B28, the binding result is listed as “binds”.

Another assay addresses T12, HLA-C*07:02 with beta-2 microglobulin (human).
T12 construct: also called HLA-C7; C702
Kind of assay: pHLA monomer refolding.
Turning to B29, the binding result is reported as “binds”.

The target in a further assay is T1, MAGE-A6 peptide on HLA-B*35:01. As to the kind of experiment: cytokine release.
B30: the binding result is “recognises”.

For the next assay, the target named is T2, MAGE-A3 peptide on HLA-B*35:01. Kind of assay: multimer staining.
On to B30, for which the binding result is reported as “recognises”.

Another assay deals with T3, MAGE-A1 peptide on HLA-B*07:02. Kind of assay: multimer staining.
With B31, the binding result was “recognises”.

In another assay the target is T4, MAGE-A1 peptide on HLA-A*03:01. As to the kind of experiment: multimer staining.
Regarding B32, the binding result is recorded as “recognises”.

The next assay deals with T5, MAGE-A1 peptide on HLA-C*07:02. Kind of assay: multimer staining.
B33: the binding result is “recognises”.

A further assay deals with T6, MAGE-A1 peptide on HLA-A*02:01. Kind of assay: multimer staining.
As to B34, the binding result was “recognises”.

A further assay has as its target T7, MAGE-A9 peptide on HLA-A*01:01. Kind of assay: multimer staining.
On to B35, for which the binding result is listed as “recognises”.

The values above are taken from patent US20260132183A1 (ACADEMISCH ZIEKENHUIS LEIDEN H O D N LUMC, published 2026).
